Test results as given in paper PMC9482650, “Quantitative fragmentomics allow affinity mapping of interactomes” (Nature Communications, 2022).

T1: DLG3_3, Q92796
T1 sequence (Q92796 374-475, limits assumed, looked up): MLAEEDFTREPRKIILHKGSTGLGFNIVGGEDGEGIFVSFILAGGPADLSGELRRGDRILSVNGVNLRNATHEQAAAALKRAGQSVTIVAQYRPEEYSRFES

T2: GRIP1_4, Q9Y3R0
T2 sequence (Q9Y3R0 467-571, limits assumed, looked up): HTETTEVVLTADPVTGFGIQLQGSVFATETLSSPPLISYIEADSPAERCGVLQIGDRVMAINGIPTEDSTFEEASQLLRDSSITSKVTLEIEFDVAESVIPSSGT

T3: LIN7C, Q9NUP9
T3 sequence (Q9NUP9 88-185, limits assumed, looked up): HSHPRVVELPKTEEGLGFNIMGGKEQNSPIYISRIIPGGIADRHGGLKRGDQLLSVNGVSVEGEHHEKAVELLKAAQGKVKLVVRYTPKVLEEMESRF

T4: MPDZ_12, O75970
T4 sequence (O75970 1857-1958, limits assumed, looked up): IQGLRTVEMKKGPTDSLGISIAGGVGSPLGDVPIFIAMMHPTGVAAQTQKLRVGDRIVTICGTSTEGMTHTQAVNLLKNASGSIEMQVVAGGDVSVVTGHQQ

T5: PARD3B_1, Q8TEW8
T5 sequence (Q8TEW8 196-299, limits assumed, looked up): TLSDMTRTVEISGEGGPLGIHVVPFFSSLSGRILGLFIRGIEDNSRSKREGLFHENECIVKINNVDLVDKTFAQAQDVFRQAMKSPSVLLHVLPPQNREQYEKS

T6: RHPN1, Q8TCX5
T6 sequence (Q8TCX5 508-602, limits assumed, looked up): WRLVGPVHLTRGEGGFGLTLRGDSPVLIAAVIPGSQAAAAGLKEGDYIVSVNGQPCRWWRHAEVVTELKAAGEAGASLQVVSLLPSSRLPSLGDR

T7: SHANK1, Q9Y566
T7 sequence (Q9Y566 658-767, limits assumed, looked up): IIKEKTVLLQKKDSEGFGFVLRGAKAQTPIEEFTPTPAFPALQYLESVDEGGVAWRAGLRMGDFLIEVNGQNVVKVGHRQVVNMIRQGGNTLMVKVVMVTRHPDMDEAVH

T8: SIPA1L2, Q9P2F8
T8 sequence (Q9P2F8 945-1036, limits assumed, looked up): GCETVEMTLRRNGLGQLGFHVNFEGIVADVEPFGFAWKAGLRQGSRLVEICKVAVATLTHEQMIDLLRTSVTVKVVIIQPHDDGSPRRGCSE


Assays:
Test in all cases: holdup assay
Design in all cases: key: below the threshold = too weak to quantify, mostly under pKd 3.1 to 4
Settings in all cases: plain residues with an end cap or a label only (N-terminal biotin on a linker: ado-ado)
ARHGEF12, Q9NZN5-2 = biological target: ARHGEF12, Q9NZN5-2
DLG1_2, Q12959 = biological target: DLG1_2, Q12959
DLG3_3, Q92796 = biological target: T1, DLG3_3, Q92796
FRMPD2_1, Q68DX3 = biological target: FRMPD2_1, Q68DX3
FRMPD3, Q5JV73 = biological target: FRMPD3, Q5JV73
GORASP1, Q9BQQ3 = biological target: GORASP1, Q9BQQ3
GRID2IP_2, A4D2P6 = biological target: GRID2IP_2, A4D2P6
GRIP1_4, Q9Y3R0 = biological target: T2, GRIP1_4, Q9Y3R0
GRIP2_4, Q9C0E4 = biological target: GRIP2_4, Q9C0E4
HTRA2, O43464 = biological target: HTRA2, O43464
Inadl_1, Q8NI35 = biological target: Inadl_1, Q8NI35
Inadl_2, Q8NI35 = biological target: Inadl_2, Q8NI35
Inadl_6, Q8NI35 = biological target: Inadl_6, Q8NI35
LDB3, O75112 = biological target: LDB3, O75112
LIN7C, Q9NUP9 = biological target: T3, LIN7C, Q9NUP9
LNX1_3, Q8TBB1 = biological target: LNX1_3, Q8TBB1
MAGI2_2, Q86UL8 = biological target: MAGI2_2, Q86UL8
MAGI2_6, Q86UL8 = biological target: MAGI2_6, Q86UL8
MPDZ_12, O75970 = biological target: T4, MPDZ_12, O75970
NHERF2_2, Q15599 = biological target: NHERF2_2, Q15599
NHERF4_1, Q86UT5-2 = biological target: NHERF4_1, Q86UT5-2
NHERF4_4, Q86UT5 = biological target: NHERF4_4, Q86UT5
PARD3B_1, Q8TEW8 = biological target: T5, PARD3B_1, Q8TEW8
PTPN3, P26045 = biological target: PTPN3, P26045
RHPN1, Q8TCX5 = biological target: T6, RHPN1, Q8TCX5
SCRIB_3, Q14160 = biological target: SCRIB_3, Q14160
SHANK1, Q9Y566 = biological target: T7, SHANK1, Q9Y566
SIPA1L2, Q9P2F8 = biological target: T8, SIPA1L2, Q9P2F8
SNX27, Q96L92 = biological target: SNX27, Q96L92

Sequence of Inadl_6, Q8NI35 (Q8NI35 1058-1167): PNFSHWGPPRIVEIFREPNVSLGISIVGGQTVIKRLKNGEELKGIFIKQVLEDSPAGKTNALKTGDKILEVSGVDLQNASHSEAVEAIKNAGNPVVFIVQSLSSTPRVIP
Sequence of GRID2IP_2, A4D2P6 (A4D2P6 272-370): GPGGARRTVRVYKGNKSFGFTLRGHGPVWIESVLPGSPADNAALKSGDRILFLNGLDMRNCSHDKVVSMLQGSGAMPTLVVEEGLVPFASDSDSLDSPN
Sequence of MAGI2_2, Q86UL8 (Q86UL8 410-522): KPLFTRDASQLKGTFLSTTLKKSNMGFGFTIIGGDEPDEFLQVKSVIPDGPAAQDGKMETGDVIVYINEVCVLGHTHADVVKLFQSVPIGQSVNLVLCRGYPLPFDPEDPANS
Sequence of GORASP1, Q9BQQ3 (Q9BQQ3 1-208): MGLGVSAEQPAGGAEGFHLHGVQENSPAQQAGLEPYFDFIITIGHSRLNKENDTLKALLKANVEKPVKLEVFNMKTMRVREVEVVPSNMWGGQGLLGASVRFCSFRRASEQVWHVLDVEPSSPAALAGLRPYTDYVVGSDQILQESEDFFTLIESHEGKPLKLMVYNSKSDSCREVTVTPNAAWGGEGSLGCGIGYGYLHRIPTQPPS
Sequence of ARHGEF12, Q9NZN5-2 (Q9NZN5 other isoform, or with tags, fused parts or gaps): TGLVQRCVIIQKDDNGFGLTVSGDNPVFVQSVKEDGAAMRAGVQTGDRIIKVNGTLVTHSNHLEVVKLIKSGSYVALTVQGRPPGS
Sequence of SCRIB_3, Q14160 (Q14160 999-1103): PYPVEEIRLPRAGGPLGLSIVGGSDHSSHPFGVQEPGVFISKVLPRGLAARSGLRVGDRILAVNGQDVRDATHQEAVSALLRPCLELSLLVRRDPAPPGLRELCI
Sequence of FRMPD3, Q5JV73 (Q5JV73 12-100): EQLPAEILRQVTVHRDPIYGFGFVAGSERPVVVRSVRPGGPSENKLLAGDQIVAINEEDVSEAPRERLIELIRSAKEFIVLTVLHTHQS
Sequence of Inadl_2, Q8NI35 (Q8NI35 238-335): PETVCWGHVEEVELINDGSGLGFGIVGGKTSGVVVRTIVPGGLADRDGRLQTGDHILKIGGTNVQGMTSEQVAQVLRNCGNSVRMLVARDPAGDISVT
Sequence of NHERF2_2, Q15599 (Q15599 142-238): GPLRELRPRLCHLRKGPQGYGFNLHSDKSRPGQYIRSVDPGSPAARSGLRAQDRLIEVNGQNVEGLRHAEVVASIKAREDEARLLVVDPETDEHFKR
Sequence of FRMPD2_1, Q68DX3 (Q68DX3 770-861): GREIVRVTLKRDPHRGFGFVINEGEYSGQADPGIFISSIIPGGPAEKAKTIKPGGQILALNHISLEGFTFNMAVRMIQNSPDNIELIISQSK
Sequence of Inadl_1, Q8NI35 (Q8NI35 113-229): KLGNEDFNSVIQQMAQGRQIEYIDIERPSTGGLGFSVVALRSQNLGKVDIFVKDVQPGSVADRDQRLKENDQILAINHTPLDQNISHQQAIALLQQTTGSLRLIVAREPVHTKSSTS
Sequence of HTRA2, O43464 (O43464 355-458): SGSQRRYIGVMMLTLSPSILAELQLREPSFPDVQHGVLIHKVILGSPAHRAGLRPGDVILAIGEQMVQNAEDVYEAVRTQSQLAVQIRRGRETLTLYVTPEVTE
Sequence of NHERF4_1, Q86UT5-2 (Q86UT5 other isoform, or with tags, fused parts or gaps): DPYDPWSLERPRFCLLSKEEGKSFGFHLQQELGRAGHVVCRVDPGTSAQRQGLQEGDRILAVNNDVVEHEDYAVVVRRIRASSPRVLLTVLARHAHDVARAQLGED
Sequence of LNX1_3, Q8TBB1 (Q8TBB1 500-596): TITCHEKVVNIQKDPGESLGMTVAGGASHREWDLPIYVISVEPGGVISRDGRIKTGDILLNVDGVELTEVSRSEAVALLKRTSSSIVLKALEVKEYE
Sequence of PTPN3, P26045 (P26045 505-587): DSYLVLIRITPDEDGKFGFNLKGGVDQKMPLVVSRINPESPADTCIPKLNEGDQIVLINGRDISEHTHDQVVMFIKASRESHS
Sequence of DLG1_2, Q12959 (Q12959 314-412): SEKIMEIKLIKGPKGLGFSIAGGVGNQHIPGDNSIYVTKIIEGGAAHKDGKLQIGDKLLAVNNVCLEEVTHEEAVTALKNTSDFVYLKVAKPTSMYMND
Sequence of GRIP2_4, Q9C0E4 (Q9C0E4 446-548): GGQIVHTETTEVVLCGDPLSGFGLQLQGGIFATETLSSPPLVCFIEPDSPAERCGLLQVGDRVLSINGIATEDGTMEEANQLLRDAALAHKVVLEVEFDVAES
Sequence of LDB3, O75112 (O75112 1-94): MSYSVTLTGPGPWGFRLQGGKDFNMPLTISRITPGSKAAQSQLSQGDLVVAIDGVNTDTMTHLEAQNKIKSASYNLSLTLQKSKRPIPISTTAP
Sequence of MAGI2_6, Q86UL8 (Q86UL8 1141-1229): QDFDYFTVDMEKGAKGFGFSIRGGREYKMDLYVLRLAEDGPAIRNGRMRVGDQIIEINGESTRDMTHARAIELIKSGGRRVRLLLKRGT
Sequence of NHERF4_4, Q86UT5 (Q86UT5 464-550): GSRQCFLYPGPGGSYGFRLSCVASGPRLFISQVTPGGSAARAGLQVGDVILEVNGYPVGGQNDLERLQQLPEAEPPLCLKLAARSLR

Binder	pKd (ARHGEF12, Q9NZN5-2)	pKd (DLG1_2, Q12959)	pKd (DLG3_3, Q92796)	pKd (FRMPD2_1, Q68DX3)	pKd (FRMPD3, Q5JV73)	pKd (GORASP1, Q9BQQ3)	pKd (GRID2IP_2, A4D2P6)	pKd (GRIP1_4, Q9Y3R0)	pKd (GRIP2_4, Q9C0E4)	pKd (HTRA2, O43464)	pKd (Inadl_1, Q8NI35)	pKd (Inadl_2, Q8NI35)	pKd (Inadl_6, Q8NI35)	pKd (LDB3, O75112)	pKd (LIN7C, Q9NUP9)	pKd (LNX1_3, Q8TBB1)	pKd (MAGI2_2, Q86UL8)	pKd (MAGI2_6, Q86UL8)	pKd (MPDZ_12, O75970)	pKd (NHERF2_2, Q15599)	further results
VNKSKLLTDV [KCNA1, Q09470]	4.56	4.55	below the threshold	below the threshold	below the threshold	below the threshold	3.71	below the threshold	below the threshold	below the threshold	below the threshold	below the threshold	below the threshold	below the threshold	below the threshold	below the threshold	4.06	3.88	below the threshold	below the threshold	pKd (NHERF4_1, Q86UT5-2): below the threshold; pKd (NHERF4_4, Q86UT5): below the threshold; pKd (PARD3B_1, Q8TEW8): below the threshold; pKd (PTPN3, P26045): 3.65; pKd (RHPN1, Q8TCX5): 3.96; pKd (SCRIB_3, Q14160): 3.55; pKd (SHANK1, Q9Y566): below the threshold; pKd (SIPA1L2, Q9P2F8): below the threshold; pKd (SNX27, Q96L92): below the threshold
TPPAAKKSRI [BAZ1A, Q9NRL2]	3.66	below the threshold	below the threshold	below the threshold	below the threshold	below the threshold	4.42	below the threshold	below the threshold	below the threshold	below the threshold	below the threshold	below the threshold	below the threshold	below the threshold	below the threshold	below the threshold	below the threshold	below the threshold	3.58	pKd (NHERF4_1, Q86UT5-2): below the threshold; pKd (NHERF4_4, Q86UT5): below the threshold; pKd (PARD3B_1, Q8TEW8): below the threshold; pKd (PTPN3, P26045): 3.93; pKd (RHPN1, Q8TCX5): 3.61; pKd (SCRIB_3, Q14160): below the threshold; pKd (SHANK1, Q9Y566): 3.53; pKd (SIPA1L2, Q9P2F8): below the threshold; pKd (SNX27, Q96L92): below the threshold
NLSIEKETKL [ASNSD1, Q9NWL6]	4.43	3.93	below the threshold	below the threshold	below the threshold	below the threshold	4.26	below the threshold	below the threshold	below the threshold	below the threshold	below the threshold	4.22	below the threshold	4.2	below the threshold	below the threshold	3.88	3.56	4.76	pKd (NHERF4_1, Q86UT5-2): 3.87; pKd (NHERF4_4, Q86UT5): below the threshold; pKd (PARD3B_1, Q8TEW8): 3.89; pKd (PTPN3, P26045): 5.21; pKd (RHPN1, Q8TCX5): 4.76; pKd (SCRIB_3, Q14160): 4.97; pKd (SHANK1, Q9Y566): 4.52; pKd (SIPA1L2, Q9P2F8): below the threshold; pKd (SNX27, Q96L92): 5.65

Continued, in another order:

pKd (ARHGEF12, Q9NZN5-2)	pKd (DLG1_2, Q12959)	pKd (DLG3_3, Q92796)	pKd (FRMPD2_1, Q68DX3)	pKd (FRMPD3, Q5JV73)	pKd (GORASP1, Q9BQQ3)	pKd (GRID2IP_2, A4D2P6)	pKd (GRIP1_4, Q9Y3R0)	pKd (GRIP2_4, Q9C0E4)	pKd (HTRA2, O43464)	pKd (Inadl_1, Q8NI35)	pKd (Inadl_2, Q8NI35)	pKd (Inadl_6, Q8NI35)	pKd (LDB3, O75112)	pKd (LIN7C, Q9NUP9)	pKd (LNX1_3, Q8TBB1)	pKd (MAGI2_2, Q86UL8)	pKd (MAGI2_6, Q86UL8)	pKd (MPDZ_12, O75970)	pKd (NHERF2_2, Q15599)	Binder	further results
3.75	below the threshold	below the threshold	below the threshold	below the threshold	below the threshold	below the threshold	below the threshold	below the threshold	below the threshold	3.48	below the threshold	3.54	below the threshold	below the threshold	below the threshold	below the threshold	3.56	below the threshold	4.84	EVNETDDTKM [KCNJ1, P48048]	pKd (NHERF4_1, Q86UT5-2): below the threshold; pKd (NHERF4_4, Q86UT5): below the threshold; pKd (PARD3B_1, Q8TEW8): below the threshold; pKd (PTPN3, P26045): 4.35; pKd (RHPN1, Q8TCX5): below the threshold; pKd (SCRIB_3, Q14160): 3.67; pKd (SHANK1, Q9Y566): 3.73; pKd (SIPA1L2, Q9P2F8): below the threshold; pKd (SNX27, Q96L92): 4.6
4.4	4.64	3.68	below the threshold	below the threshold	below the threshold	3.86	below the threshold	below the threshold	below the threshold	below the threshold	below the threshold	3.71	below the threshold	3.88	below the threshold	below the threshold	3.92	3.48	3.88	SKENVQETQI [LRRC4B, Q9NT99]	pKd (NHERF4_1, Q86UT5-2): below the threshold; pKd (NHERF4_4, Q86UT5): below the threshold; pKd (PARD3B_1, Q8TEW8): below the threshold; pKd (PTPN3, P26045): 4.8; pKd (RHPN1, Q8TCX5): 5.1; pKd (SCRIB_3, Q14160): 4.88; pKd (SHANK1, Q9Y566): 3.98; pKd (SIPA1L2, Q9P2F8): below the threshold; pKd (SNX27, Q96L92): 5.55
